# Results: US20260263521A1, “ANTI-CD200R1 ANTIBODY AND USE THEREOF” (AIMED BIO INC., priority 2023, published 2026)
# T1: human CD200R1 (Homo sapiens, UniProt Q8TD46)
# T1 sequence (Q8TD46 25-348): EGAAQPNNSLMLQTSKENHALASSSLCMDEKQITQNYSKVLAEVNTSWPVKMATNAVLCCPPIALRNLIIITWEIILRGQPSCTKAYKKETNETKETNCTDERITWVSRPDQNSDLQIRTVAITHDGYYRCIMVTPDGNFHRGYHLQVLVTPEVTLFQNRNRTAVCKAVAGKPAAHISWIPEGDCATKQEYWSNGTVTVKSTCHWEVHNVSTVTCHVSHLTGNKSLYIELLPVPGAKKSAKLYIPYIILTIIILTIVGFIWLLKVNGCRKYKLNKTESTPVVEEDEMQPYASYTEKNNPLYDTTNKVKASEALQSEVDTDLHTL
# Experiments:
# human CD200R1 = biological target: T1, human CD200R1; experiment: SPR binding kinetics, human CD200R1; conditions: hCD200R1-his captured on anti-His CM5 chip, 1:1 Langmuir fit
# Experimental: (§1) The CD200R1-specific binding ability of the antibodies (P001009 wt, P001009 v1, P001009 v2, P001009 v3, P001009 v4) selected in Example 14 was analyzed using surface plasma resonance (SPR). For the experiment, 30 μg/mL of an anti-histidine antibody was conjugated to a CM5 biacore chip via an amine bond while allowing to flow at 10 μl/min (10,000 RU). Then, 0.25 μg/mL of human or cynomolgus CD200R1 with dual His-tags was captured onto the completed chip for 60 seconds, and the binding ability of each antibody was analyzed. All experiments were performed by association of antibodies for 120 seconds and dissociation of antibodies for 600 seconds. The resulting graphs were fitted using a 1:1 Langmuir binding kinetic model (FIG. 16), and the kinetics of each antibody were calculated.
# cynomolgus CD200R1 = experiment: SPR binding kinetics, cynomolgus CD200R1; conditions: cynomolgus CD200R1-his captured on anti-His CM5 chip, 1:1 Langmuir fit
# Experimental: as §1
# [1] = tested on: TNF-α in U937-CD200R1 cells; experiment: TNF-α suppression in LPS-treated U937-CD200R1 cells (AlphaLISA); format: cell-based, human; conditions: for TNF-α: LPS-treated U937-CD200R1 cells, 24 h
# Experimental: (§2) To determine the binding ability of the candidates to U937-CD200R1-overexpressing cell lines and verify the efficacy thereof, the anti-inflammatory effect of anti-CD200R1 antibodies was analyzed. First, 5×10^6 U937-CD200R1 cells were added to 12 ml of medium, treated with 30 ng/ml of Phorbol 12-myristate 13-acetate (Sigma Aldrich, #P1585), and reacted at 37° C. in 5% CO2 for 24 hours. After reaction, the medium was replaced with RPMI 1640 medium containing only 10% heat-inactivated FBS, and 5×10^6 cells were maintained at 37° C. in 5% CO2 for 24 hours.
# (§3) Cells were seeded on duplicate onto 96-well round-bottom plates (SPL, #34296) at 1×10^5 cells/50 μl/well. P001009 WT, P001009v1, and the previously published CD200R antibody LY3454738 (US 2020/0087395, I-4P, Eli Lilly) as a positive control were used in this experiment. The drug was serially diluted 10-fold from a maximum concentration of 100 nM and treated to the cells at concentrations of 10 nM, 1 nM, […], respectively. Additional cells were treated with 100 nM of hIgG4 kappa isotype control (Crownvivo, #C0004) as a negative control. Untreated cells were seeded in the same amount of medium (RPMI 1640 containing 10% heat-inactivated FBS) and incubated at 37° C., 5% CO2 for 1 hour. To induce an inflammatory response in drug-treated cells, each well was treated with 10 μl of lipopolysaccharide from Salmonella typhosa (Sigma Aldrich, #L7895) at a concentration of 1 μg/ml. One well was left untreated to assess the induction of inflammatory cytokines. After thorough mixing, the cells were incubated at 37° C. and 5% CO2 for 24 hours.
# (§4) After centrifugation at 1100 g for 2 minutes, images of the pellets before and after LPS treatment were captured using a microscope (Carl Zeiss, AXIO VERT.A1). After LPS treatment, the pellet appeared as scattered debris (FIG. 18B) rather than uniform spheroids (FIG. 18A). This was observed under a microscope. The supernatant was collected and analyzed for inflammatory cytokines such as TNF-α and IL-6 using an EnVision® multimode plate reader (PerkinElmer). A bead-based cytokine assay was performed using the AlphaLISA immunoassay on the EnVision® instrument. TNF-α(human) AlphaLISA Detection Kit, 500 assay points (PerkinElmer, #AL208C) was used for TNF-α, and the IL-6 (human) AlphaLISA Detection Kit, 500 assay points (PerkinElmer, #AL223C) was used for IL-6. Cytokine levels were determined depending on the concentration of each antibody.
# [2] = tested on: IL-6 in U937-CD200R1 cells; experiment: IL-6 suppression in LPS-treated U937-CD200R1 cells (AlphaLISA); format: cell-based, human; conditions: for IL-6: LPS-treated U937-CD200R1 cells, 24 h
# Experimental: as §2, §3, §4
# monkey CD200R1 = experiment: ELISA binding to monkey CD200R1; conditions: Example 14
# Source text: Therefore, the LC D51 and LC D92 sequences were not substituted during the optimization process. However, since LC N30 and LC N31 can play an important role in the specific binding of antibodies as paratopes, the sequences were substituted and optimized. Through rational design, LC S52 and LC S94 were substituted with K and R, respectively, to derive P001009v1, and LC S52 and LC D93 were substituted with K and R, respectively, to derive P001009v2. Further, P001009v3, in which LC N30 was substituted with S, and P001009v4, in which LC N31 was substituted with K, were derived and produced, and the binding ability to human, mouse, and monkey CD200R1 was analyzed by ELISA (FIG. 15). […] Both […] and variants thereof had very weak binding ability to mouse CD200R1 at concentrations up to 300 nM.
# [3] = low nanomolar (nM) drug concentrations
Molecule,Ka (human CD200R1),Ka (cynomolgus CD200R1),TNF-α ([1]; log [Ab] (M) −7),TNF-α ([1]; log [Ab] (M) −8),TNF-α ([1]; log [Ab] (M) −9),TNF-α ([1]; log [Ab] (M) −10),TNF-α ([1]; log [Ab] (M) −11),TNF-α ([1]; log [Ab] (M) −12),IL-6 ([2]; log [Ab] (M) −7),IL-6 ([2]; log [Ab] (M) −8),IL-6 ([2]; log [Ab] (M) −9),IL-6 ([2]; log [Ab] (M) −10),IL-6 ([2]; log [Ab] (M) −11),IL-6 ([2]; log [Ab] (M) −12),binding ability to monkey CD200R1 compared to parent (monkey CD200R1),"TNF-α level [1, 3]","IL-6 level [2, 3]"
"P001009: phage display anti-CD200R1 clone; VH SEQ ID NO: 79, VL SEQ ID NO: 94 (antibody, V domains shown) VH: EVQLLESGGGLVQPGGSLRLSCAASGFTFSSYDMSWVRQAPGKGLEWVSWISHGGGSIYYADSVKGRFTISRDNSKNTLYLQMNSLRAEDTAVYYCARDAPAYSAPLFDYWGQGTLVTVSS VL: QSVLTQPPSASGTPGQRVTISCSGSSSNIGNNAVNWYQQLPGTAPKLLIYYDSNRPSGVPDRFSGSKSGTSASLAISGLRSEDEADYYCAAWDDSLSGYVFGGGTKLTVL",2.81e+06 M⁻¹ s⁻¹,5.63e+06 M⁻¹ s⁻¹,619.6 ± 12.3 pg/mL,1259.1 ± 29.9 pg/mL,2035.8 ± 108.9 pg/mL,4148.8 ± 208.7 pg/mL,5038.4 ± 7.7 pg/mL,5128.6 ± 667.6 pg/mL,231.7 ± 24.1 pg/mL,401.5 ± 9.6 pg/mL,1245.6 ± 49.9 pg/mL,3398.1 ± 325.5 pg/mL,3751.0 ± 144.5 pg/mL,4512.7 ± 74.1 pg/mL,–,–,–
"P001009v1: P001009 variant, LC S52 and LC S94 substituted with K and R; VH SEQ ID NO: 79 (antibody, V domains shown) VH: EVQLLESGGGLVQPGGSLRLSCAASGFTFSSYDMSWVRQAPGKGLEWVSWISHGGGSIYYADSVKGRFTISRDNSKNTLYLQMNSLRAEDTAVYYCARDAPAYSAPLFDYWGQGTLVTVSS VL: QSVLTQPPSASGTPGQRVTISCSGSSSNIGNNAVNWYQQLPGTAPKLLIYYDKNRPSGVPDRFSGSKSGTSASLAISGLRSEDEADYYCAAWDDRLSGYVFGGGTKLTVL",4.77e+06 M⁻¹ s⁻¹,5.23e+06 M⁻¹ s⁻¹,146.7 ± 23.8 pg/mL,609.5 ± 25.6 pg/mL,1039.8 ± 54.7 pg/mL,3352.5 ± 189.8 pg/mL,4753.2 ± 96.1 pg/mL,4082.1 ± 964.6 pg/mL,153.7 ± 8.8 pg/mL,165.1 ± 8.4 pg/mL,454.2 ± 45 pg/mL,2439 ± 56.8 pg/mL,3517.7 ± 166.3 pg/mL,4730.2 ± 99.8 pg/mL,improved,maintained low inflammatory cytokine levels,maintained low inflammatory cytokine levels
